# Test results: patent publication US20250334585A1
# Molecular target: immobilized gingipain (GP protein) of the anti-gingipain ELISA of Example 18
# Assay: ELISA on immobilized gingipain
binder,measurement,value
"KB001 (antibody, V domains shown) VH: EVQLKQSGPGLVAPSQSLSITCTVSGFSLSIYSVHWVRQPPGKGLEWLGMIWGGGSSDYNSALKSRLSISKDNSKSQVFLKMNSLQTDDTAMYYCARNGNFYAMDYWGQGTSVTVSS VL: QIVLTQSPAIMSASLGERVTMTCTASSSVSSSFLHWYQQKPGSSPQLWIYSTSNLASGVPARFSGSGSGTSYSLTISSMEAEDAATYYCHQYHHSPYIYTFGGGTKLEIKR",detectable level of concentration,3 ng/mL
